Data on one molecule can be found in PMC10574445, “Label-Free Homogeneous Electrochemical Aptasensor Based on Size Exclusion/Charge-Selective Permeability of Nanochannel Arrays and 2D Nanorecognitive Probe for Sensitive Detection of Alpha-Fetoprotein”.

What all share (settings): protein: commercial
Data set [1] deals with T1, alpha-fetoprotein (AFP) (UniProt P02771 19-609).
T1 sequence: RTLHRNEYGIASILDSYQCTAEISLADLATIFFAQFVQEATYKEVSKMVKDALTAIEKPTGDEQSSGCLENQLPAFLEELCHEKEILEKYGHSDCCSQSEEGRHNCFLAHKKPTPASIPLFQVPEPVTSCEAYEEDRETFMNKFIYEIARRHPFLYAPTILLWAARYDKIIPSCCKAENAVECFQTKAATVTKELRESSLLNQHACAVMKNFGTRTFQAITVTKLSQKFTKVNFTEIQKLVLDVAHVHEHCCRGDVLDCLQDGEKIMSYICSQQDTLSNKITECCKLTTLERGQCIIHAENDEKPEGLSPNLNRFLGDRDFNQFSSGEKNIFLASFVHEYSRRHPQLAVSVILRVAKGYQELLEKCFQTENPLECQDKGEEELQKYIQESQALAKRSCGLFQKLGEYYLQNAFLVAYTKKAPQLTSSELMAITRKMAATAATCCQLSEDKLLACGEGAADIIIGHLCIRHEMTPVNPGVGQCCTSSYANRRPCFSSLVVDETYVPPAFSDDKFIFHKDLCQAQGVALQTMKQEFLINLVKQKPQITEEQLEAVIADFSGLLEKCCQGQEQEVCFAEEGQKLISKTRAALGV
The data set can be described thus: electrochemical aptasensor (DPV), aptamer release from graphene oxide; Ru(bpy)3 2+/Apt@GO probe; linear 1 pg/mL-1000 ng/mL, LOD 0.8 pg/mL (not a Kd); AFP incubated with Ru(bpy)3 2+/Apt@GO at 37 °C for 1 h, DPV on VMSF/ITO; buffer, salt and pH not given in the material.

Data set [2] has as its target carcinoembryonic antigen (CEA) (UniProt P06731 35-685). The data set can be described thus: electrochemical aptasensor (DPV), aptamer release from graphene oxide; Ru(bpy)3 2+/Apt@GO probe; no remarkable signal change; AFP incubated with Ru(bpy)3 2+/Apt@GO at 37 °C for 1 h, DPV on VMSF/ITO; buffer, salt and pH not given in the material.
Data set [3] concerns the target PSA (printed as preprostate antigen) (UniProt P07288 25-261). The data set is described as above.
The target in data set [4] is neutrophil gelatinase-associated lipocalin (NGAL) (UniProt P80188 21-198). The data set is described as above.
Chain of neutrophil gelatinase-associated lipocalin (NGAL) (P80188 21-198): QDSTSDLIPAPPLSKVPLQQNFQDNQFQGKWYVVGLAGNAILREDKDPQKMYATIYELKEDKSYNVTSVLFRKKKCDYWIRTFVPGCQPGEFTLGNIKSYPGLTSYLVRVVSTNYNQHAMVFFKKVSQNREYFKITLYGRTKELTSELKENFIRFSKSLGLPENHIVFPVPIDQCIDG

Chain of PSA (printed as preprostate antigen) (P07288 25-261): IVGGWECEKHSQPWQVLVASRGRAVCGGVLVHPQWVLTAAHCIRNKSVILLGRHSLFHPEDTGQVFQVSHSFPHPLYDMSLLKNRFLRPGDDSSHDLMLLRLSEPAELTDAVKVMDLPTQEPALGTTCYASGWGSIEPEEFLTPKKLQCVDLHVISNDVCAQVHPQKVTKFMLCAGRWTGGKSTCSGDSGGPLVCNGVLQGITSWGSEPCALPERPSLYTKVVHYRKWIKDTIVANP
Chain of carcinoembryonic antigen (CEA) (P06731 35-685): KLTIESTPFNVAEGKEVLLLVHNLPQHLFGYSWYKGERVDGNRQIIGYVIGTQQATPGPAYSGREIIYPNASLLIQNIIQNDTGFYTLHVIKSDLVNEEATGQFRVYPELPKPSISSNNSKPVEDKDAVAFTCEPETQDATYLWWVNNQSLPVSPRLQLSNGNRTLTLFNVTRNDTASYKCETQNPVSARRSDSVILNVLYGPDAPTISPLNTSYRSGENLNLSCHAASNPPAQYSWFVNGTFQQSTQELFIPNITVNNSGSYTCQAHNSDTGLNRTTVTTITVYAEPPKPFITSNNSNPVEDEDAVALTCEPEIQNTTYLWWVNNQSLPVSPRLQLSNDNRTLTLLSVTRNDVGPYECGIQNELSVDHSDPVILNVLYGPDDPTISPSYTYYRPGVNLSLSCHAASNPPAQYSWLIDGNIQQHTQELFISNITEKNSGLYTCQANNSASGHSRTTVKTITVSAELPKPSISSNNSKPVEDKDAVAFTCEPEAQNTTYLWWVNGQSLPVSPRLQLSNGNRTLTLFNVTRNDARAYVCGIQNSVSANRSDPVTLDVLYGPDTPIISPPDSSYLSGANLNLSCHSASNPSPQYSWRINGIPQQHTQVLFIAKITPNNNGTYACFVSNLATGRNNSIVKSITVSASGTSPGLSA

Regarding ATCAGGTGCAGTTCTCGACTCGGTCTTGATGTGGG (ssDNA) [AFP aptamer (Apt)], the binding result is recorded as “binds” in data set [1], “no binding” in data set [2], “no binding” in data set [3] and “no binding” in data set [4].
